T1: tag-free PDZ domain of PDLIM5 (PDLIM5-PDZ), first 127 residues (human, UniProt Q96HC4 1-127)
T1 construct: cDNA amplified from human kidney cDNA; a degradation product of the full-length construct in pSUMO3; also called untagged PDLIM5-PDZ; source: E. coli BL21, purified (Ni-NTA, SUMO proteinase 2 digestion, size-exclusion chromatography); not shown: His6-SUMO3, N-terminal, cleaved
T1 sequence (looked up): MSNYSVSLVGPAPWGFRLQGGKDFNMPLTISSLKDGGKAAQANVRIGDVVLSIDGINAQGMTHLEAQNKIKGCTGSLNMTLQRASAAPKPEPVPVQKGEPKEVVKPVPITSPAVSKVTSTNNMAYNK


Target: T1, tag-free PDZ domain of PDLIM5 …
Assay: ELISA; 100 μl of 30 μM GST_AE1C-WT, -Δ11, -M909T or GST alone immobilised on a 96-well plate; incubated with 100 μl of 2 μg/ml GST_PDLIM5, tag-free PDLIM5-PDZ or GST_ILK; detection with anti-PDLIM5-nt or anti-ILK, HRP, ABTS
Conditions: both partners purified

binding result | Binder
binds | LIFRNVELQCLDADDAKATFDEEEGRDEYDEVAMPV (domain or fragment, human, last 36 residues of anion exchanger 1 (AE1, SLC4A1), the cytosolic C-terminal tail; cloned into pGEX-4T-1; source: E. coli BL21, purified (glutathione sepharose beads); not shown: GST, N-terminal, kept) [GST-tagged AE1 C-terminal domain, wild type (GST_AE1C-WT)]
binds | LIFRNVELQCLDADDAKATFDEEEGRDEYDEVATPV (domain or fragment, human, UniProt P02730 876-911, looked up, last 36 residues of anion exchanger 1 (AE1, SLC4A1) with the dRTA-causing mutation M909T; cloned into pGEX-4T-1; C-terminus becomes A908TPV; source: E. coli BL21, purified (glutathione sepharose beads); not shown: GST, N-terminal, kept) [GST-tagged AE1 C-terminal domain with the missense mutation M909T (GST_AE1C-M909T)]

From paper PMC5206653, “PDLIM5 links kidney anion exchanger 1 (kAE1) to ILK and is required for membrane targeting of kAE1” (Scientific Reports, 2017)
